Values joined by “and” are separate entries in the source; they are usually repeats but may differ in a detail not shown here. Equal entries are not always repeated.
Tested on: Bacillus subtilis DB104 (SP-AmyQ fusion secretion)
Experiment: AmyQ secretion efficiency, weighted average sort bin (1 = best secretion, 10 = worst) (bin number (weighted average, 1-10)); higher = lower secretion efficiency
Procedure, shortened: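 Secretion score gives the read-frequency-weighted average bin number, normalised to beads per bin, with low-abundance sequences left out. A B. subtilis DB104 library expressing mature AmyQ fused to designed signal peptides, integrated at amyE, was encapsulated with fluorescein-starch at about 0.3 cells per ~65 nL alginate bead. Beads were grown about 13 h at room temperature, stained with nile red, and the occupied ones were sorted by large-particle flow cytometry into 10 equally populated bins by green/red fluorescence ratio before the amplicons from each bin were Illumina-sequenced.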

Row | Sequence | AmyQ secretion efficiency
1 | MRKKTKNRLISSVLSTVVISSLLFPGAAGARKK | 2.52
2 | MRKKTKNRLISSVLSTVVISSLLFPGAAGASEE | 2.7
3 | MRKKTKNRLISSVLSTVVISSLLFPGAAGASSD | 2.47
4 | MRKKTKNRLISSVLSTVVISSLLFPGAAGASSK | 1.59 and 2.27 and 1.9
5 | MRKKTKNRLISSVLSTVVISSLLFPGAAGASSP | 1.67
6 | MRKKTKNRLISSVLSTVVISSLLFPGAAGCSSK | 5.98
7 | MRKKTKNRLISSVLSTVVISSLLFPQEAGASSK | 1.83
8 | MRKKTKNRLISSVLSTVVISSPGAAGASSK | 3.33
9 | MRKKTKNRLISSVRKTVVISSLLFPGAAGASSK | 4.05
10 | MRKLKRVLLLLVTGLFMSLFAVTATASAQTG | 1.02
11 | MRKLWISLLFALTLIFTMAFSNMSAQAAGK | 2.67
12 | MRKNNNLFFFFMTIFAFLTGLMMFGTITAASASPD | 3.7
13 | MRKNRIKRKKVLSLGLLSFMVTPVSAASK | 7.91
14 | MRKNRILALFVLSLGLLFSFMVTPVSAASK | 1.99
15 | MRKNRILALFVLSLGLLKRKRKKVSAASK | 6.69
16 | MRKNRILALFVLSLGLLRRKVTPVSAASK | 7.91
17 | MRKNRILALFVLSLGLLSFMVTPCSAASK | 2.01
18 | MRKNRILALFVLSLGLLSFMVTPISAASK | 2.15
19 | MRKNRILALFVLSLGLLSFMVTPSSTVSAASK | 2.01
20 | MRKNRILALFVLSLGLLSFMVTPTSAASK | 2
21 | MRKNRILALFVLSLGLLSFMVTPVSAASK | 2.04 and 2.05 and 2.92
22 | MRKNRILALFVLSLGLLSFMVTPVSAKRK | 2.57
23 | MRKNRILALFVLSLGLLSFMVTPVSRASK | 8.98
24 | MRKNRILALFVLSLGLLSFMVTPVSTASK | 5.93
25 | MRKNRLLLNILALFVLSLGLLSFMVTPVSAASK | 1.08
26 | MRKNRRGKQGTLSLGLLSFMVTPVSAASK | 7.32

Row | Sequence | AmyQ secretion efficiency
27 | MRKNRSSMSFTLILALFVLSLGLLSFMVTPVSAASK | 1.45
28 | MRKRKILLSSALSLGMLVSAAPVLATSS | 2.04
29 | MRKRKKKSMLTVMIASLFIFSSQALAVQY | 6.79
30 | MRKRKKLSVAVAASFMSLSISLPGVQAAEG | 1.73
31 | MRKRKKRLSVAVAASFMSLSISLPGVQAAEG | 2.16
32 | MRKRKKRTIFAFLTGLMMFGTITAASASPD | 5.69
33 | MRKRKRRLILSAVLFLSCFFGARQTEASASKR | 2.98
34 | MRKRKVVGFLSVLGLAAVFPLTAQAEKA | 3.02
35 | MRKRLFRVCFLAALIMAFTLPNSVYAQKP | 2.73
36 | MRKRQGSGYGGLMMFGTITAASASPD | 7.27
37 | MRKRRKKILALFVLSLGLLSFMVTPVSAASK | 2.65
38 | MRKRRKRGIQAFAGGIILATAVLAAVFYLTDEDQAAAV | 6.73
39 | MRKRRTIFAFLTGLMMFGTITAASASPD | 4.74
40 | MRKRTKTSLLLAGLCTAAQMVFVTHASAEES | 3.51
41 | MRKSLITLGLASFTILVIGTSSFLIPFTSKTASAETL | 1.81
42 | MRKSLITLGLASIVIGTSSFLIPFTSKTASAETL | 2.2
43 | MRKSLITLGLASVIGTKASAETL | 5.6
44 | MRKSLITLGLASVIGTSSFLIPFTKASAETL | 2.6
45 | MRKSLITLGLASVIGTSSFLIPFTSKTASAETL | 2.73 and 5.9 and 4.16
46 | MRKSLITLGLASVIGTSSFLIPFTSKTHSAETL | 6.74
47 | MRKSLITLGLASVIGTSSFLIPFTSKTLSAETL | 4.7
48 | MRKSLITLGLASVISIIVFLIAFTSKTASAETL | 2.48
49 | MRKTIFAFLTGLMMFEDDEEDASASPD | 5.45
50 | MRKTIFAFLTGLMMFFGTITAASASPD | 1.98
51 | MRKTIFAFLTGLMMFGTITAASASPF | 4.61
52 | MRKTIFAFLTGLMMFGTITAASASPR | 4.47

Row | Sequence | AmyQ secretion efficiency
53 | MRKTIFAFLTGLMMFGTITAASKSPD | 6
54 | MRKTIFAFLTGLMMFGTITAASRSPD | 6.51
55 | MRKTIFAFLTGLMMFGTITACSASPD | 5.81
56 | MRKTIFAFLTGLMMFGTITAISASPD | 5.52
57 | MRKTIFAFLTGLMMFGTITALSASPD | 5.45
58 | MRKTIFAFLTGLMMFGTITAMSASPD | 5.39
59 | MRKTIFAFLTGLMMFGTITAPSASPD | 5.98
60 | MRKTIFAFLTGLMMFGTITAQSASPD | 5.11
61 | MRKTIFAFLTGLMMFGTITASPSTASASPD | 2.04
62 | MRKTIFAFLTGLMMFIFTSSGTITAASASPD | 1.89
63 | MRKTIFAFLTGLMMFKKRTAASASPD | 6.93
64 | MRKTIFAFLTGLMMFKRRKKKASASPD | 7.76
65 | MRKTKKRKLTGLMMFGTITAASASPD | 4.65
66 | MRKTRRKKKRGLMMFGTITAASASPD | 5.82
67 | MRKTSLLLAGLCTAAQMVFVTHASAEES | 2.32
68 | MRKVFPLILSAVLFLSCFFGARQTEASASKR | 2.13
69 | MRKVITCVMAASLTLGSLLPAGYASAKED | 3.26
70 | MRKVITCVMAASLTLGSLLPAGYATAKED | 3.88
71 | MRKVLTMCFLGLILFVPTALADNS | 2.17
72 | MRKVVGFLSVLGLAAVFPLTAQAEKA | 2.03
73 | MRKWYFILLAGVLTSVILAFVYDKGKANEE | 2.67
74 | MRKWYFILLAGVLTSVILAFVYDKTKANDD | 6.75
75 | MRKWYFILLAGVLTSVILAFVYDKTKYNEE | 4.09
76 | MRKWYQYQGAGVLTSVILAFVYDKTKANEE | 8.25
77 | MRKYTFVIASILLSFLSVLSGGHHESKAFPV | 5.44
78 | MRKYTQIASILLSFLSVLSGGHHESKAFPV | 6.41

Row | Sequence | AmyQ secretion efficiency
79 | MRKYTTKGYQKTYFLSVLSGGHHESKAFPV | 8.3
80 | MRKYTVIASILLSFLSVLASTVFVSKAFPV | 8.75
81 | MRKYTVIASILLSFLSVLDEDDEDHHESKAFPV | 5.95
82 | MRKYTVIASILLSFLSVLESKAFPV | 4.71
83 | MRKYTVIASILLSFLSVLFGFHHESKAFPV | 3.04
84 | MRKYTVIASILLSFLSVLFGVAHESKAFPV | 3.89
85 | MRKYTVIASILLSFLSVLFIVVVTSKAFPV | 5.84
86 | MRKYTVIASILLSFLSVLKKKKHHKSKAFPV | 7.85
87 | MRKYTVIASILLSFLSVLRGGHHRSKAFPV | 7.77
88 | MRKYTVIASILLSFLSVLSGGHHESKAFPR | 4.58
89 | MRKYTVIASILLSFLSVLSGGHHESKAFPV | 3.25 and 4.96
90 | MRKYTVIASILLSFLSVLSGGHHESKARRR | 7.19
91 | MRKYTVIASILLSFLSVLSGGHHEVATSKAFPV | 3.74
92 | MRKYTVIASILLSFLSVLSGGHHEWKAFPV | 4.79
93 | MRKYTVKRSILLSFLSVLSGGHHESKAFPV | 6.95
94 | MRKYTVRRKRKRSFLSVLSGGHHESKAFPV | 7.56
95 | MRMLWRGQKSCGTYLTLAPCAQAAEP | 7.51
96 | MRMLWRMLALCLLALLLAPCAQAAEP | 1.73
97 | MRMLWRMMISLALCGLALTLAPCAQAAEP | 1.79
98 | MRMLWRSKRLCGLALTLAPCAQAAEP | 6.7
99 | MRMLWRSKRRCKLALTLAPCAQAAEP | 7.06
100 | MRMLWRSLALCGLALPCAQAAEP | 6.75
101 | MRMLWRSLALCGLALTLADDDCAQAAEP | 2.72
102 | MRMLWRSLALCGLALTLAFLSVSLFFVPCAQAAEP | 1.41
103 | MRMLWRSLALCGLALTLAICIAQAAEP | 4.76
104 | MRMLWRSLALCGLALTLAKRRCAQAAEP | 6.64

Row | Sequence | AmyQ secretion efficiency
105 | MRMLWRSLALCGLALTLALPCAQAAEP | 2.19
106 | MRMLWRSLALCGLALTLAPCAQAAKK | 2.93
107 | MRMLWRSLALCGLALTLAPCAQAAPK | 2.07
108 | MRMLWRSLALCGLALTLAPCAQAATP | 2.06
109 | MRMLWRSLALCGLALTLAPCAQADDD | 4.62
110 | MRMLWRSLALCGLALTLAPCAQCAEP | 3.11
111 | MRMLWRSLALCGLALTLAPCAQGAEP | 2.58
112 | MRMLWRSLALCGLALTLAPCAQIAEP | 6.42
113 | MRMLWRSLALCGLALTLAPCAQLAEP | 6.58
114 | MRMLWRSLALCGLALTLAPCAQSAEP | 2.34
115 | MRMLWRSLALCGLALTLAPCAQVAEP | 6.05
116 | MRMLWRSLALCGLALTLAPCAQWAEP | 5.9
117 | MRMLWRSLALCGLALTLAPCCQAAEP | 1.93
118 | MRMLWRSLALCGLALTLAPCFVVTPASAQAAEP | 2.23
119 | MRMLWRSLALCGLALTLAPCMQAAEP | 1.94
120 | MRMLWRSLALCGLALTLAPCPQAAEP | 6.73
121 | MRMLWRSLALCGLALTLAPCTGTAQAAEP | 1.82
122 | MRMLWRSLALCGLALTLAPCVQAAEP | 1.79
123 | MRMLWRSLALCGLALTLAPCWQAAEP | 5.47
124 | MRMLWRSRRKCKRRLTLAPCAQAAEP | 5.33
125 | MRMLWRSSSQCGLALTLAPCAQAAEP | 8.18
126 | MRNLTKFLLLLAFLCMAAQMVFVTHASAEES | 3.58
127 | MRNLTKMMNTSLLLAGLCTAAQMVFVTHASAEES | 2.48
128 | MRNLTKTKRRKAGLCTAAQMVFVTHASAEES | 6.94
129 | MRNLTKTSLLLAGLCQMVFVTHASAEES | 3.18

Reference: the supplement of paper PMC9942255
